Source: publication PMC8142927, “Destabilization of EpCAM dimer is associated with increased susceptibility towards cleavage by TACE” (PeerJ, 2021)
Where a chain is given by its changes, count along the chain named. Numbers in names are those of the source.

Target: the molecule itself
Test: SEC-MALS; SEC with right- and low-angle laser light scattering detectors (SEC-RALLS/LALLS, OMNISEC), Superdex 200 Increase 10/300 GL, 150 μg of protein injected per run, 25 °C, 0.5 ml/min, 20 mM HEPES, pH 7.5, 100 mM NaCl; dimer to monomers

B1: EpEX (EpCAM extracellular part, residues 24-265, with mutated N-glycosylation sites N74Q, N111Q and N198Q) (domain or fragment, human)
chain: QEECVCENYKLAVNCFVNNNRQCQCTSVGAQNTVICSKLAAKCLVMKAEMQGSKLGRRAKPEGALQNNDGLYDPDCDESGLFKAKQCQGTSMCWCVNTAGVRRTDKDTEITCSERVRTYWIIIELKHKAREKPYDSKSLRTALQKEITTRYQLDPKFITSILYENNVITIDLVQQSSQKTQNDVDIADVAYYFEKDVKGESLFHSKKMDLTVNGEQLDLDPGQTLIYYVDEKAPEFSMQGLKLE
notes: Epithelial cell adhesion molecule (EpCAM, CD326), human, extracellular part EpEX, residues 24-265, N-glycosylation sites mutated; residues translated from the XhoI scar, between K265 and the His6-tag; in solution it is a dimer in equilibrium with a small amount of monomer; also called wild type-like EpEX; non-glycosylated EpEX variant; source: Sf9 insect cells (baculovirus), culture supernatant, …
stoichiometry N: 2

B2: EpEX L264C (domain or fragment, human)
chain: B1 chain with L241C
modifications: disulfide bond between the introduced cysteine residues (C264) of the two subunits
notes: residues translated from the XhoI scar, between K265 and the His6-tag; Derived from m1; the protein is a constitutive dimer of two subunits linked by a disulfide; PDB 4mzv is the parent EpEX; also called disulfide-stabilized dimeric form; covalently stabilized EpEX dimer; source: Sf9 insect cells (baculovirus), culture supernatant, purified (His-tag column, ion exchange, SEC); not shown: His6, …
stoichiometry N: 2
